Each block holds one binder with its values, some of them ahead of it. Bridge positions count the residues as written; N and C are the ends. Ends that are not written are not given here.
How the values were obtained:
[1] = target: OP-1 receptor of ROS cells (OP-1 receptor-enriched plasma membrane fraction of ROS cells) (rat); assay: radioligand receptor assay, ROS cell plasma membranes
[2] = target: OP-1 receptor of ROS cells (OP-1 receptor-enriched plasma membrane fraction of ROS cells) (rat)
[3] = target: OP-1 receptor of ROS cells (OP-1 receptor-enriched plasma membrane fraction of ROS cells) (rat); remark: listed apart in the source
[4] = target: OP-1 receptor of ROS cells (OP-1 receptor-enriched plasma membrane fraction of ROS cells) (rat); assay: displacement of ^125I-soluble OP-1 from ROS cell plasma membranes
[5] = target: OP-1 receptor of ROS cells (OP-1 receptor-enriched plasma membrane fraction of ROS cells) (rat); remark: listed apart in the source
[6] = target: OP-1 receptor of ROS cells (OP-1 receptor-enriched plasma membrane fraction of ROS cells) (rat); remark: listed apart in the source
[7] = target: OP-1 receptor of ROS cells (OP-1 receptor-enriched plasma membrane fraction of ROS cells) (rat); remark: listed apart in the source
[8] = target: OP-1 receptor of ROS cells (OP-1 receptor-enriched plasma membrane fraction of ROS cells) (rat); remark: listed apart in the source

Binder: CFRDLGWQDWIIAPC (disulfide 1-15) [Peptide F1-2]
IC50 (peptide concentration giving 50% inhibition of the cell response to OP-1), ROS cell alkaline phosphatase [5]: 10 µM | concentration required to inhibit the binding of ^125I-labeled OP-1 [1]: 179 µM

Binder: CLNAISVLYFDDSSNVILKKYRNMVVRC (disulfide 1-28 (inferred)) [Peptide F2-1]
IC50 (peptide concentration inhibiting the OP-1 induced cell response by 50%), ROS cell alkaline phosphatase [8]: 8 µM

Results, then the binder that gave them:

ED50 [1]: 1 µM | OP-1 induced cellular alkaline phosphatase activity of ROS cells, potentiation [2]: 20% | alkaline phosphatase activity of ROS cells, increase relative to soluble OP-1 alone [3]: 20% | ED50 [4]: 1 µM
Binder: CYFDDSSNVIC (disulfide 1-11) [Peptide F2-2]

IC50 (peptide concentration giving 50% inhibition of cellular responsiveness to OP-1), ROS cell alkaline phosphatase [6]: 5 µM | concentration at which the binding of ^125I-labeled OP-1 to the receptor was potentiated [1]: 8 µM
B1: Peptide H-C2 (peptide)
peptide: CCFINPETVCC
modifications: disulfide (positions not given here); not fully specified (bridges); also: double disulfide bonds, pairing of the four Cys not given here

ED50 [1]: 10 µM | OP-1 induced cellular alkaline phosphatase activity of ROS cells, % increase in OP-1 response relative to the absence of peptide [7]: 53% | alkaline phosphatase activity of ROS cells, increase relative to soluble OP-1 alone [3]: 20% | ED50 [4]: 5 µM
Binder: CYFDDSSNVICKKYRS (disulfide 1-11) [Peptide F2-3]

Reference: patent publication US20030185792A1, “Morphogen analogs of bone morphogenic proteins” (Curis, Inc., priority 1996, published 2003)
